The experiment deals with human RAD51 (human) (UniProt Q06609). In words: cell-based or functional assay.

[ ]: non-standard residue; d: D form. dNle = CCCC[C@@H](N)C(=O)O

The term IC50 denotes the concentration needed to halve the response being measured. High values mean lower potency, low ones higher potency.

Sequence of human RAD51 (human) (Q06609 2-339 limits assumed): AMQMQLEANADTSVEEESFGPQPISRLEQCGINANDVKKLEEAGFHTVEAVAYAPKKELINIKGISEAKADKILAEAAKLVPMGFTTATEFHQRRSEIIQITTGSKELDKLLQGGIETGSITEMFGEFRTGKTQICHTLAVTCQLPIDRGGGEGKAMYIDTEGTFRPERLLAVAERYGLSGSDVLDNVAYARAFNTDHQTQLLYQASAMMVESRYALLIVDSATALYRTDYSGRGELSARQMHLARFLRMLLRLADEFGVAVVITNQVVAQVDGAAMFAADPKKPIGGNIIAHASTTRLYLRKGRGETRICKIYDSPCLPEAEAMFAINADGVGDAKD

B1: Compound 11 (peptide)
peptide: Ac-[dL][dNle][dR]G[dV][dR][dL][dR][dV]G[dL][dR][dK][dR][dR][dR][dR]G[dY]-NH2
SMILES: CCCC[C@@H](NC(=O)[C@@H](CC(C)C)NC(C)=O)C(=O)N[C@H](CCCNC(=N)N)C(=O)NCC(=O)N[C@@H](C(=O)N[C@H](CCCNC(=N)N)C(=O)N[C@H](CC(C)C)C(=O)N[C@H](CCCNC(=N)N)C(=O)N[C@@H](C(=O)NCC(=O)N[C@H](CC(C)C)C(=O)N[C@H](CCCNC(=N)N)C(=O)N[C@H](CCCCN)C(=O)N[C@H](CCCNC(=N)N)C(=O)N[C@H](CCCNC(=N)N)C(=O)N[C@H](CCCNC(=N)N)C(=O)N[C@H](CCCNC(=N)N)C(=O)NCC(=O)N[C@H](Cc1ccc(O)cc1)C(N)=O)C(C)C)C(C)C
Consider B1, for which the IC50 is 9 µM.

B2: Compound 9 (peptide)
peptide: Ac-[dL][dNle][dR][dS][dV][dR][dL][dR][dV]G[dL][dR][dK][dR][dR][dR][dR][dR][dR][dR]-NH2
SMILES: CCCC[C@@H](NC(=O)[C@@H](CC(C)C)NC(C)=O)C(=O)N[C@H](CCCNC(=N)N)C(=O)N[C@H](CO)C(=O)N[C@@H](C(=O)N[C@H](CCCNC(=N)N)C(=O)N[C@H](CC(C)C)C(=O)N[C@H](CCCNC(=N)N)C(=O)N[C@@H](C(=O)NCC(=O)N[C@H](CC(C)C)C(=O)N[C@H](CCCNC(=N)N)C(=O)N[C@H](CCCCN)C(=O)N[C@H](CCCNC(=N)N)C(=O)N[C@H](CCCNC(=N)N)C(=O)N[C@H](CCCNC(=N)N)C(=O)N[C@H](CCCNC(=N)N)C(=O)N[C@H](CCCNC(=N)N)C(=O)N[C@H](CCCNC(=N)N)C(=O)N[C@H](CCCNC(=N)N)C(N)=O)C(C)C)C(C)C
Consider B2, for which the IC50 stood at 20 µM.
